This note sets out measurements from the supplement of paper PMC10598134.

± gives the standard deviation.

The series in a line: collision cross section of modified peptide (TIMS, N2, iRT-aligned); higher = larger / more extended gas-phase ion. The method, boiled down: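 Collision cross section values rest on the Mason-Schamp equation applied to calibrated, run-aligned mobility data from synthetic peptides. Mobility (1/K0) was calibrated with three reference ions and aligned per run to the median iRT peptide deviation, and 1–3 technical replicates of the most abundant feature per charge state were averaged. Data came from a timsTOF Pro/HT in dda-PASEF mode (nitrogen, ~2.4 mbar) after a 120-min nanoflow C18 gradient at 60 °C.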

The mark [1] stands for this setting: charge state: 3, modification: Methyl (R).
The mark [2] stands for this setting: charge state: 2, modification: HexNAc (ST).
Setting [3] is: charge state: 3, modification: HexNAc (ST).
The mark [4] stands for this setting: charge state: 2, modification: Citrullination (R).
[5] abbreviates: charge state: 2, modification: Methyl (R).
Setting [6] is: charge state: 3, modification: Citrullination (R).
[7] abbreviates: charge state: 2, modification: Acetyl (K).
Setting [8] is: charge state: 2, modification: Biotin.
[9] abbreviates: charge state: 2, modification: Butyryl.
The mark [10] stands for this setting: charge state: 2, modification: Crotonyl.
Where [11] appears, read: charge state: 2, modification: Dimethyl (K).
The mark [12] stands for this setting: charge state: 3, modification: Dimethyl (K).
Where [13] appears, read: charge state: 2, modification: Formyl.
Where [14] appears, read: charge state: 2, modification: Glutarylation.
The mark [15] stands for this setting: charge state: 2, modification: GlyGly (K).
Where [16] appears, read: charge state: 3, modification: GlyGly (K).
The mark [17] stands for this setting: charge state: 2, modification: Malonyl.
The mark [18] stands for this setting: charge state: 2, modification: Methyl (K).
Setting [19] is: charge state: 3, modification: Methyl (K).
Where [20] appears, read: charge state: 2, modification: Propionyl.
[21] abbreviates: charge state: 2, modification: Succinyl.
[22] abbreviates: charge state: 2, modification: Trimethyl (K).
Where [23] appears, read: charge state: 3, modification: Trimethyl (K).
[24] abbreviates: charge state: 2, modification: hydroxyisobutyryl.
Where [25] appears, read: charge state: 2, modification: Nitro (Y).

Take “RFGGPVHHQAQR [_R(Methyl (R))FGGPVHHQAQR_]”: the collision cross section under setting [1] is given as 496.52 ± 2.2 Å².

Substance “RFSPPSSSLQPGK [_RFS(HexNAc (ST))PPSSSLQPGK_]” had a collision cross section under setting [2] of 414.91 ± 1 Å² and a collision cross section under setting [3] of 448.47 ± 9.4 Å². Regarding “RGATPPAPPR [_R(Citrullination (R))GATPPAPPR_]”, under setting [4], the collision cross section worked out at 332.88 ± 2.4 Å².

RGATPPAPPR [_R(Methyl (R))GATPPAPPR_]: the collision cross section under setting [5] is on record as 338.68 ± 2.1 Å² and the collision cross section under setting [1] came out at 463.88 ± 2.9 Å². As for “RGATPPAPPRR [_R(Citrullination (R))GATPPAPPRR_]”, the collision cross section under setting [6] is listed as 462.57 ± 1.3 Å². Take RGATPPAPPRR [_R(Methyl (R))GATPPAPPRR_]: under setting [1], the collision cross section is on record as 465.62 ± 0.37 Å². For “RGFGFGGFAISAGK [_R(Citrullination (R))GFGFGGFAISAGK_]”, the collision cross section under setting [4] was found to be 391.71 ± 0.23 Å². Take “RGFGFGGFAISAGK [_R(Methyl (R))GFGFGGFAISAGK_]”: the collision cross section under setting [1] is on record as 488.52 ± 3.4 Å².

“RGGFAVQAK [_R(Citrullination (R))GGFAVQAK_]” gave a collision cross section under setting [4] of 326.29 ± 0.63 Å².

For RGGFAVQAK [_R(Methyl (R))GGFAVQAK_], under setting [5], the collision cross section was 338.01 ± 1.4 Å². RGPPGAK [_RGPP(Hydroxyproline)GAK_]: the collision cross section (charge state: 2, modification: Hydroxyproline) was 303.1 ± 0.0067 Å².

“RGVGAGAIAK [_R(Citrullination (R))GVGAGAIAK_]” had a collision cross section under setting [4] of 319.31 Å².

As to RGVGAGAIAK [_R(Methyl (R))GVGAGAIAK_], the collision cross section under setting [5] amounted to 328.76 ± 0.75 Å².

Consider “RLDINTNTYTSQDLK [_RLDINTNTYTS(HexNAc (ST))QDLK_]”, for which, under setting [3], the collision cross section was determined as 511.61 ± 0.96 Å².

In the case of “RLPNVHGR [_R(Citrullination (R))LPNVHGR_]”, the collision cross section is on record as 340.93 ± 1.6 Å² under setting [4] and 417.11 ± 3.5 Å² under setting [6]. RLPNVHGR [_R(Methyl (R))LPNVHGR_]: the collision cross section is 332.28 ± 1.8 Å² under setting [5] and 421.48 ± 3.9 Å² under setting [1]. Take “RLPTTGYLVYR [_R(Citrullination (R))LPTTGYLVYR_]”: the collision cross section under setting [4] is listed as 383.11 ± 0.23 Å². For the substance RLPTTGYLVYR [_R(Methyl (R))LPTTGYLVYR_], the collision cross section turned out to be 391.98 Å² under setting [5] and 476.6 ± 3.2 Å² under setting [1].

For the substance “SAGSVESPSVSSTHR [_SAGSVESPSVS(HexNAc (ST))STHR_]”, under setting [2], the collision cross section worked out at 412.88 ± 0.14 Å². “SAGSVESPSVSSTHR [_SAGSVESPSVSST(HexNAc (ST))HR_]” gave a collision cross section under setting [3] of 473.17 ± 1.2 Å².

“SALAAAQTQVAEYK [_S(HexNAc (ST))ALAAAQTQVAEYK_]”: the collision cross section under setting [2] amounted to 431.97 ± 0.62 Å². Substance SDDESSQKDIK [_SDDESSQK(Acetyl (K))DIK_] yielded a collision cross section under setting [7] of 374.03 ± 0.38 Å². Turning to SDDESSQKDIK [_SDDESSQK(Biotin)DIK_], the collision cross section under setting [8] is reported as 393.46 Å².

Consider SDDESSQKDIK [_SDDESSQK(Butyryl)DIK_], for which the collision cross section under setting [9] turned out to be 378.95 ± 0.72 Å². Under setting [10], SDDESSQKDIK [_SDDESSQK(Crotonyl)DIK_] came in with a collision cross section of 379.43 ± 0.8 Å². For “SDDESSQKDIK [_SDDESSQK(Dimethyl (K))DIK_]”, the collision cross section under setting [11] came to 372.77 ± 1.2 Å² and the collision cross section under setting [12] is recorded as 434.93 ± 2.1 Å². Under setting [13], SDDESSQKDIK [_SDDESSQK(Formyl)DIK_] displayed a collision cross section of 368.14 ± 1.1 Å². The substance “SDDESSQKDIK [_SDDESSQK(Gluratylation)DIK_]” gave a collision cross section under setting [14] of 382.21 ± 1.1 Å². Consider SDDESSQKDIK [_SDDESSQK(GlyGly (K))DIK_], for which the collision cross section runs as follows: under setting [15], 380.21 ± 0.89 Å²; under setting [16], 442.7 ± 0.74 Å². The substance SDDESSQKDIK [_SDDESSQK(Malonyl)DIK_] displayed a collision cross section under setting [17] of 372.43 ± 0.63 Å². Turning to SDDESSQKDIK [_SDDESSQK(Methyl (K))DIK_], the collision cross section is, setting by setting: under setting [18], 375.97 ± 0.26 Å²; under setting [19], 439.66 ± 3.3 Å². For the substance SDDESSQKDIK [_SDDESSQK(Propionyl)DIK_], under setting [20], the collision cross section was found to be 377.44 ± 0.33 Å². SDDESSQKDIK [_SDDESSQK(Succinyl)DIK_] registered a collision cross section under setting [21] of 378.1 ± 1 Å².

For “SDDESSQKDIK [_SDDESSQK(Trimethyl (K))DIK_]”, the collision cross section is given as 380.2 ± 1.7 Å² under setting [22] and 430.76 ± 2.7 Å² under setting [23]. “SDDESSQKDIK [_SDDESSQK(hydroxyisobutyryl)DIK_]”: the collision cross section under setting [24] worked out at 383.53 ± 0.55 Å². Under setting [7], “SDSGKPYYYNSQTK [_SDSGK(Acetyl (K))PYYYNSQTK_]” yielded a collision cross section of 419.63 ± 2 Å². “SDSGKPYYYNSQTK [_SDSGK(Biotin)PYYYNSQTK_]” had a collision cross section under setting [8] of 440.01 ± 0.23 Å². The substance “SDSGKPYYYNSQTK [_SDSGK(Butyryl)PYYYNSQTK_]” showed a collision cross section under setting [9] of 426.68 ± 0.77 Å². In turn, “SDSGKPYYYNSQTK [_SDSGK(Crotonyl)PYYYNSQTK_]” displayed a collision cross section under setting [10] of 425.72 ± 0.29 Å².

“SDSGKPYYYNSQTK [_SDSGK(Formyl)PYYYNSQTK_]” showed a collision cross section under setting [13] of 417.77 ± 0.18 Å². For the substance “SDSGKPYYYNSQTK [_SDSGK(Gluratylation)PYYYNSQTK_]”, the collision cross section is, setting by setting: under setting [14], 430.3 ± 1.5 Å²; (charge state: 3, modification: Glutarylation) 493.09 Å². Take “SDSGKPYYYNSQTK [_SDSGK(GlyGly (K))PYYYNSQTK_]”: the collision cross section is, setting by setting: under setting [15], 428.35 ± 1.4 Å²; under setting [16], 476.2 ± 1.7 Å². “SDSGKPYYYNSQTK [_SDSGK(Malonyl)PYYYNSQTK_]” showed a collision cross section under setting [17] of 422.4 ± 0.57 Å². With “SDSGKPYYYNSQTK [_SDSGK(Methyl (K))PYYYNSQTK_]”, the collision cross section came to 422.21 Å² under setting [18] and 475.71 ± 2.9 Å² under setting [19]. As to “SDSGKPYYYNSQTK [_SDSGK(Succinyl)PYYYNSQTK_]”, the collision cross section under setting [21] was 423.37 ± 1.1 Å². Take “SDSGKPYYYNSQTK [_SDSGK(Trimethyl (K))PYYYNSQTK_]”: the collision cross section under setting [23] worked out at 473.28 ± 2.4 Å².

For “SDSGKPYYYNSQTK [_SDSGK(hydroxyisobutyryl)PYYYNSQTK_]”, the collision cross section is on record as 428.74 ± 0.3 Å² under setting [24] and 490.1 ± 3.9 Å² (charge state: 3, modification: hydroxyisobutyryl). Under setting [7], SEASSEFAKK [_SEASSEFAK(Acetyl (K))K_] displayed a collision cross section of 349.46 ± 1 Å². Regarding SEASSEFAKK [_SEASSEFAK(Biotin)K_], the collision cross section under setting [8] is 374.33 Å². SEASSEFAKK [_SEASSEFAK(Butyryl)K_]: the collision cross section under setting [9] came to 356.58 ± 1.8 Å². Substance SEASSEFAKK [_SEASSEFAK(Crotonyl)K_] returned a collision cross section under setting [10] of 355.23 ± 0.57 Å². Take SEASSEFAKK [_SEASSEFAK(Dimethyl (K))K_]: the collision cross section turned out to be 358.79 ± 0.58 Å² under setting [11] and 422.66 ± 2.8 Å² under setting [12]. Consider SEASSEFAKK [_SEASSEFAK(Formyl)K_], for which the collision cross section under setting [13] was determined as 345.37 ± 1.6 Å². “SEASSEFAKK [_SEASSEFAK(Gluratylation)K_]” yielded a collision cross section under setting [14] of 358.01 ± 0.65 Å². In the case of SEASSEFAKK [_SEASSEFAK(GlyGly (K))K_], the collision cross section is recorded as 362.55 ± 0.39 Å² under setting [15] and 429.79 ± 1.1 Å² under setting [16]. SEASSEFAKK [_SEASSEFAK(Malonyl)K_] returned a collision cross section under setting [17] of 350.91 ± 0.74 Å². For the substance SEASSEFAKK [_SEASSEFAK(Methyl (K))K_], the collision cross section reads like this: under setting [18], 357.88 ± 2.5 Å²; under setting [19], 426.48 ± 2.6 Å². Take SEASSEFAKK [_SEASSEFAK(Propionyl)K_]: the collision cross section under setting [20] turned out to be 351.7 ± 3.7 Å². SEASSEFAKK [_SEASSEFAK(Succinyl)K_] gave a collision cross section under setting [21] of 351.69 ± 0.87 Å². “SEASSEFAKK [_SEASSEFAK(Trimethyl (K))K_]”: the collision cross section reads like this: under setting [22], 361.14 ± 0.6 Å²; under setting [23], 431.4 ± 4.5 Å². The substance “SEASSEFAKK [_SEASSEFAK(hydroxyisobutyryl)K_]” had a collision cross section under setting [24] of 356.42 ± 0.78 Å². Substance SEGFDTYR [_SEGFDTY(Nitro (Y))R_] came in with a collision cross section under setting [25] of 336.07 ± 0.95 Å². Consider SEGFDTYR [_SEGFDTY(Phospho (Y))R_], for which, under “charge state: 2, modification: Phospho (Y)”, the collision cross section is reported as 338.3 ± 0.78 Å². Regarding “SFDEVEGVFGRGGGR [_SFDEVEGVFGR(Citrullination (R))GGGR_]”, the collision cross section runs as follows: under setting [4], 404.76 ± 0.98 Å²; under setting [6], 503.12 Å². In the case of “SFDEVEGVFGRGGGR [_SFDEVEGVFGR(Methyl (R))GGGR_]”, the collision cross section reads like this: under setting [5], 429.58 ± 1.6 Å²; under setting [1], 513.29 ± 1.2 Å².

As to SFEDIHQYR [_SFEDIHQY(Nitro (Y))R_], the collision cross section is, setting by setting: under setting [25], 368.15 ± 0.17 Å²; (charge state: 3, modification: Nitro (Y)) 453.82 ± 1.2 Å².
